Results from patent US20240376180A1 (DEUTSCHES ZENTRUM FUR NEURODEGENERATIVE ERKRANKUNGEN E V …, published 2024).

T1: Fc fusion protein of the RBD-SD1 region of MERS-CoV (MERS-CoV, UniProt K9N5Q8 367-655)
T1 sequence: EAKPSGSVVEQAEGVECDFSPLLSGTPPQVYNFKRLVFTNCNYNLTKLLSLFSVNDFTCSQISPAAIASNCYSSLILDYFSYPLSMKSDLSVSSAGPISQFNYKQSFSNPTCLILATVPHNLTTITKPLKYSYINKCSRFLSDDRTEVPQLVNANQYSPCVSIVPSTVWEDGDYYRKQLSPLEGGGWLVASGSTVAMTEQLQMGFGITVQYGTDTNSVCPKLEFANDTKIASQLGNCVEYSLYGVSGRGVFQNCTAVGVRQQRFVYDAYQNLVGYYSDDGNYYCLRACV

T2: Fc fusion protein of the RBD-SD1 region of HCoV-HKU1 (HCoV-HKU1, UniProt Q5MQD0 310-677)
T2 construct: domain: RBD-SD1 region
T2 sequence: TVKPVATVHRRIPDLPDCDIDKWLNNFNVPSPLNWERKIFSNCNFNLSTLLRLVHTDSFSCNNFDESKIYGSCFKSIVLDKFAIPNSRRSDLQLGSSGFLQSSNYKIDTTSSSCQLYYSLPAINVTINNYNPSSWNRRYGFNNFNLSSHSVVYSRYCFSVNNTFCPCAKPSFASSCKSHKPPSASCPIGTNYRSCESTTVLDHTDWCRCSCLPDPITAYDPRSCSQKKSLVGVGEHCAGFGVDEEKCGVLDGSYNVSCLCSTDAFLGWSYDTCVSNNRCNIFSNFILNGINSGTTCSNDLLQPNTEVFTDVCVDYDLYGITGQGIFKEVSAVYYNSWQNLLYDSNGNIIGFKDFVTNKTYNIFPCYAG

T3: Fc fusion protein of the RBD-SD1 region of HCoV-OC43 (HCoV-OC43, UniProt P36334 318-675)
T3 construct: domain: RBD-SD1 region
T3 sequence: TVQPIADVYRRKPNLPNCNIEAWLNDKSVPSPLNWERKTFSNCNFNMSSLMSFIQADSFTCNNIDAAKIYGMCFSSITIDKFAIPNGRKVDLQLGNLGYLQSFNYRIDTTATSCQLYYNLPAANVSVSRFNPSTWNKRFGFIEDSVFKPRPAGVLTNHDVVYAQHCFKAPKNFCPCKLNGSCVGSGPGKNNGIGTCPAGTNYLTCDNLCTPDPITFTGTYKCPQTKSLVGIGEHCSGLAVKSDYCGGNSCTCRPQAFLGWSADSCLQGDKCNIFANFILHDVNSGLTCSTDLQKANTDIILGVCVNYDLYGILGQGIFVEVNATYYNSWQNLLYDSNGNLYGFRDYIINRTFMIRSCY


Experiments:
[1] = molecular target: T1, Fc fusion protein of the RBD-SD1 region …; test: ELISA on captured RBD-SD1-Fc
[2] = molecular target: T2, Fc fusion protein of the RBD-SD1 region …; test: ELISA on captured RBD-SD1-Fc
[3] = molecular target: Fc fusion protein of the RBD-SD1 region of SARS-CoV (SARS-CoV, UniProt P59594 306-577); test: ELISA on captured RBD-SD1-Fc
[4] = molecular target: T3, Fc fusion protein of the RBD-SD1 region …; test: ELISA on captured RBD-SD1-Fc
beta-2 microglobulin = beta-2 microglobulin (Homo sapiens (Human), UniProt P61769 21-119); test: routine laboratory ELISA
Sequence of beta-2 microglobulin (P61769 21-119 limits assumed): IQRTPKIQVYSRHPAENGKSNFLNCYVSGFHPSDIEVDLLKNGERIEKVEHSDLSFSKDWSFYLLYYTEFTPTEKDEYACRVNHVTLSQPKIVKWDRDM

[5] = molecular target: T4, Spike protein of authentic SARS-CoV-2 (Munich isolate 984) (SARS-CoV-2, UniProt P0DTC2 14-1273); test: cell-based or functional assay; parameters: IC90 Neutralizing Assay: unit not given beside the values
[6] = molecular target: SARS-CoV-2 S protein-RBD-mFc (SARS-CoV-2, UniProt P0DTC2 319-537)
[7] = molecular target: T4, Spike protein of authentic SARS-CoV-2 …; test: cell-based or functional assay

Row | Binder | binding result [1] | binding result [2] | binding result [3] | binding result [4] | binding result (beta-2 microglobulin) | IC50 Neutralizing Assay [5] | Kd [6] [pM] | IC50 (PRNT, authentic SARS-CoV-2) [7] [µg/mL] | IC90 Neutralizing Assay [5]
1 | HK CV07-209 (antibody, V domains shown) VH: QVQLVESGGGLVKPGGSLRLSCAASGFTFSDYYMSWIRQAPGKGLEWVSYISSSVSTIYYADSVKGRFTISRDNAKNSLYLQMNSLRAEDTAVYYCARDGVIPPRFDYWGQGTLVTVSS VL: not shown | no binding (tested: 1 µg/ml) | no binding (tested: 1 µg/ml) | no binding (tested: 1 µg/ml) | no binding (tested: 1 µg/ml) | no binding (tested: 50 µg/ml) | < 0.05 µg/mL | 6 | 0.0031 | 
2 | HL CV07-222 (antibody, V domains shown) VH: QVQLVQSGAEVKKPGASVKVSCKASGYTFTDYYVHWVRQAPGQGLEWMGWINPISGGTNYAQKFQGRVTMTRDTSISTAYMELSRLRSDDTAVYYCARGPYYYDSSGSLGAFDIWGQGTMVTVSS VL: QSALTQPASVSGSPGQSITISCTGTSSDVGSYNLVSWYQQHPGKAPKLMIYEGSKRPSGVSNRFSGSKSGNTASLTISGLQAEDEAHYYCCSYAGGSTSYVFGTGTKVTVLG | no binding (tested: 1 µg/ml) | no binding (tested: 1 µg/ml) | no binding (tested: 1 µg/ml) | no binding (tested: 1 µg/ml) | no binding (tested: 50 µg/ml) | < 0.05 µg/mL | 6.97 | 0.0078 | 
3 | HK CVX1-126 (antibody, V domains shown) VH: EVQLVESGGGLVQPGGSLRLSCAASGLTVSSNYMSWVRQAPGKGLEWVSVIYSGGSTYYADSVKGRFTISRHNSKNTLYLQMNSVRAEDTAVYYCARDLSEGGMDVWGQGTTVTVSS VL: DIQMTQSPSSVSASVGDRVTITCRASQGISSWLAWYQQKPGKAPKLLIYAASTLQSGVPSRFSGSGSGTDFTLTISSLQPEDFATYYCQQANGFPPLFGGGTKVEIKR | no binding (tested: 1 µg/ml) | no binding (tested: 1 µg/ml) | no binding (tested: 1 µg/ml) | no binding (tested: 1 µg/ml) | no binding (tested: 50 µg/ml) |  | 243 | 0.0717 | 
4 | HK CVX2-106 (antibody, V domains shown) VH: QVQLVQSGAEVKKPGSSVKVSCKASGGTFSSYAISWVRQAPGQGLEWMGGIIPIFGTANYAQKFQGRVTITADESTSTAYMELSSLRSEDTAVYYCATRKETTVTTSLVYGMDVWGQGTTVTVSS VL: not shown | no binding (tested: 1 µg/ml) | no binding (tested: 1 µg/ml) | no binding (tested: 1 µg/ml) | no binding (tested: 1 µg/ml) | no binding (tested: 50 µg/ml) | ~0.5 µg/mL |  | 0.0176 | 
5 | HK CV38-221 (antibody, V domains shown) VH: EVQLVESGGGLVQPGGSLRLSCAASGITVSSNYMIWVRQAPGKGLEWVSVIYSGGSTYYADSVKGRFTISRDNSKNTLYLQMNSLRAEDTAVYYCARGFGDYYFDYWGQGTLVTVSS VL: EIVLTQSPGTLSLSPGERATLSCRASQSVSSSYFAWYQQKPGQAPRLLIYGASSRATGIPDRFSGSGSGTDFTLTISRLEPEDFAVYYCQQLYTFGQGTKLEIKR | no binding (tested: 1 µg/ml) | no binding (tested: 1 µg/ml) | no binding (tested: 1 µg/ml) | no binding (tested: 1 µg/ml) | no binding (tested: 50 µg/ml) |  | 499 | 0.173 | 
6 | HK CV38-139 (antibody, V domains shown) VH: EVQLVESGGGLVQPGGSLRLSCAASGFTVSSNYMSWVRQAPGKGLEWVSVFYSGGSTFYADSVKGRFTISRDNSKNTLYLQMNSLRAEDTAVYYCARGHYDLFDYWGQGTLVTVSS VL: DIQLTQSPSFLSASVGDRVTITCRASQGISSYLAWYQQKPGKAPKLLIYAASTLQSGVPSRFSGSGSGTEFTLTISSLQPEDFATYYCQQLNSYPPGTFGPGTKVDIKR | no binding (tested: 1 µg/ml) | no binding (tested: 1 µg/ml) | no binding (tested: 1 µg/ml) | no binding (tested: 1 µg/ml) | no binding (tested: 50 µg/ml) |  | 277 | 0.0732 | 
7 | HK CV38-113 (antibody, V domains shown) VH: EVQLVESGGGLVQPGGSLRLSCAASGFTVSSNYMSWVRQAPGKGLEWVSVIYSGGSTYYADSVKGRFTISRHNSKNTLYLQMNSLRAEDTAVYFCARGGRLADAAGDYWGQGTLVTVSS VL: not shown | no binding (tested: 1 µg/ml) | no binding (tested: 1 µg/ml) | no binding (tested: 1 µg/ml) | no binding (tested: 1 µg/ml) | no binding (tested: 50 µg/ml) | ~0.05 µg/mL | 134 | 0.0208 | 
8 | HL CV07-262 (antibody, V domains shown) VH: QVQLVQSGAEVKKPGASVKVSCKASGYTFTGYYMHWVRQAPGQGLEWMGWINPNSGGTNYAQTFQGRVTMTRDTSITTTYMELSRLRSDDTAVYYCARVGWYDFGTPGDYYYYYGMDVWGQGTTVTVSS VL: QSALTQPASVSGSPGQSITISCTGTSSDVGSYNLVSWYQQHPGKAPKLMIYEGSKRPSGVSNRFSGSKSGNTASLTISGLQAEDEADYFCCSYAGTSTFVFGTGTKVTVLG | no binding (tested: 1 µg/ml) | no binding (tested: 1 µg/ml) | no binding (tested: 1 µg/ml) | no binding (tested: 1 µg/ml) | no binding (tested: 50 µg/ml) | < 0.05 µg/mL | 79 | 0.0071 | ~500
9 | HL CV07-255 (antibody, V domains shown) VH: not shown VL: QSALTQPASVSGSPGQSITISCTRTSSDVESYNLVSWYQQHPGKAPKLMIYEVSKRPSGISNRFSGSKSGNTASLTISGLQAEDEADYYCCSYAGHSTWVFGGGTELTVLG | no binding (tested: 1 µg/ml) | no binding (tested: 1 µg/ml) | no binding (tested: 1 µg/ml) | no binding (tested: 1 µg/ml) | no binding (tested: 50 µg/ml) | ~0.05 µg/mL |  | 0.0145 | 
10 | HL CV07-267 (antibody, V domains shown) VH: not shown VL: QSALTQPASVSGSPGQSITISCTGTSSDVGSYNLVSWYQQHPGKAPKLMIYEVSKRPSGVSNRFSGSKSGNTASLTISGLQAEDEADYYCCSYAGSSSWVFGGGTKLTVLG |  |  |  |  |  | ~500 |  |  | 
11 | HL CV07-270 (antibody, V domains shown) VH: QVQLVESGGGLVKPGGSLRLSCAASGFTFSDYYMTWIRQAPGKGLEWVSYISSSGSTIYYADSVKGRFTISRDNAKNSLYLQMNSLRAEDTAVYYCARARGSSGWYRIGTRWGNWFDPWGQGTLVTVSS VL: QSALTQPASVSGSPGQSITISCTGTSSDVGGYNYVSWYQQHPGKAPKLMIYEVSNRPSGVSNRFSGSKSGNTASLTISGLQAEDEADYYCSSYTSSSNVVFGGGTMLTVLG | no binding (tested: 1 µg/ml) | no binding (tested: 1 µg/ml) | no binding (tested: 1 µg/ml) | no binding (tested: 1 µg/ml) | no binding (tested: 50 µg/ml) |  |  | 0.0823 | ~500
